Measured values as given in the RNAGym collection of RNA variant scans (doi:10.7554/elife.80360).

B1: Hairpin Ribozyme (parent)
chain: GUCCUCUUUCACGUGCGCGUGAAAGAGAGAAGUGAACCAGAGAAACACACGUUGUGGUAUAUUACCUGGUA

Variants of: B1
Assay: self-cleavage, relative activity (ratio to wild type); higher = more cleavage; co-transcriptional

Going from A22C U58A to G21A G29U, the self-cleavage falls from 0.68 to 0.186.

First: U20C A22G
Second: A22C G27U
The self-cleavage of the first is higher: 0.877 for the first, 0.411 for the second.

First: U20C G57C
Second: G21U A47U
The self-cleavage of the first is higher: 0.198 for the first, 0.123 for the second.

Going from G21A A59G to G21A C48U, the self-cleavage falls from 0.125 to 0.0963.

Going from G21A C48A to U20C C48G, the self-cleavage falls from 0.19 to 0.104.

Going from U20C C48U to U20C G32U, the self-cleavage falls from 0.175 to 0.157.

Compared with G21U G57A, G21U G57U is higher in self-cleavage: 0.148 for the first, 0.224 for the second.

First: A22G U62G
Second: A22G U62A
The self-cleavage of the first is lower: 0.122 for the first, 0.189 for the second.

Going from A22C G34U to A22C G34A, the self-cleavage falls from 1.49 to 1.04.

First: A22C G34C
Second: U20G G56C
The self-cleavage of the first is higher: 1.22 for the first, 0.312 for the second.

Going from G21U C50A to U20G G57U, the self-cleavage rises from 0.194 to 0.212.

Going from G21A U67G to A22G A45U, the self-cleavage rises from 0.241 to 0.268.

First: A22G A45G
Second: A22G A71C
The self-cleavage of the first is lower: 0.115 for the first, 1.28 for the second.

Going from G21A G40U to A22G U63C, the self-cleavage rises from 0.151 to 0.245.

Going from A22G U67G to A22G U67C, the self-cleavage falls from 0.247 to 0.231.

Compared with A22G U67A, A22G U60G is higher in self-cleavage: 0.239 for the first, 0.416 for the second.

Going from A22G U60C to A22G G51C, the self-cleavage falls from 0.899 to 0.745.

First: G21U C38U
Second: G21U C38G
The self-cleavage of the first is higher: 0.357 for the first, 0.167 for the second.

Compared with U20G G42A, A22U A23U is higher in self-cleavage: 0.266 for the first, 0.842 for the second.

First: U20C C38G
Second: U20C C38U
The self-cleavage of the first is lower: 0.154 for the first, 0.415 for the second.

Compared with U20C A49U, U20G A24C is higher in self-cleavage: 0.148 for the first, 0.789 for the second.

First: A22C A49C
Second: A22G A47C
The self-cleavage of the first is lower: 0.264 for the first, 0.27 for the second.

Going from G21C G25U to G21C G25A, the self-cleavage falls from 0.399 to 0.165.

First: A22C G32U
Second: A22C G32A
The self-cleavage of the first is lower: 0.107 for the first, 0.178 for the second.

First: A22C G32C
Second: G21A A47G
The self-cleavage of the first is lower: 0.106 for the first, 0.2 for the second.

Compared with G21A A47C, U20C U67G is lower in self-cleavage: 0.402 for the first, 0.336 for the second.

Compared with G21A A26C, G21U G51U is higher in self-cleavage: 0.0544 for the first, 0.992 for the second.

Going from U20C G25A to G21C A71C, the self-cleavage rises from 0.288 to 1.12.

Compared with A22C A43U, G21C G57U is higher in self-cleavage: 0.15 for the first, 0.189 for the second.

Compared with A22C A71U, A22C A71G is higher in self-cleavage: 0.685 for the first, 0.945 for the second.

Compared with A22U A49U, G21A U60A is higher in self-cleavage: 0.293 for the first, 0.804 for the second.

First: U20G A31G
Second: G21C A30U
The self-cleavage of the first is higher: 0.581 for the first, 0.139 for the second.

Going from G21C A30C to U20G A59G, the self-cleavage falls from 0.242 to 0.167.

Going from A22U A31U to A22U A31G, the self-cleavage rises from 0.12 to 0.589.

First: G21C A22C
Second: G21C A22U
The self-cleavage of the first is lower: 0.61 for the first, 0.715 for the second.

Compared with U20G A35C, U20G U70A is higher in self-cleavage: 0.976 for the first, 1.07 for the second.

Compared with U20G U70C, A22U A59G is lower in self-cleavage: 0.783 for the first, 0.117 for the second.

Going from A22G G69C to A22C A61G, the self-cleavage falls from 0.209 to 0.123.

Compared with A22U A47U, A22U A47C is higher in self-cleavage: 0.202 for the first, 0.345 for the second.

Compared with A22G A41G, U20C C66A is lower in self-cleavage: 0.811 for the first, 0.309 for the second.

Going from U20C C66U to G21A G27U, the self-cleavage falls from 0.486 to 0.227.

Going from U20C U70G to U20G U58A, the self-cleavage falls from 0.909 to 0.501.

First: G21U C65A
Second: U20G A23U
The self-cleavage of the first is higher: 0.996 for the first, 0.712 for the second.

First: U20G A23G
Second: G21A C50A
The self-cleavage of the first is higher: 0.98 for the first, 0.306 for the second.

Going from U20G U55A to U20G U55G, the self-cleavage rises from 0.147 to 0.293.

Compared with U20G U55C, U20C G34C is higher in self-cleavage: 0.268 for the first, 1.45 for the second.

Going from G21C A23U to A22C A28U, the self-cleavage rises from 0.5 to 0.504.

First: A22C A28C
Second: U20G A41C
The self-cleavage of the first is lower: 0.386 for the first, 1.13 for the second.

First: U20G A41U
Second: G21C G68U
The self-cleavage of the first is higher: 1.3 for the first, 0.289 for the second.

First: A22U A39U
Second: G21C C46G
The self-cleavage of the first is higher: 0.359 for the first, 0.162 for the second.

First: A22C G69U
Second: A22C G69A
The self-cleavage of the first is lower: 0.152 for the first, 0.448 for the second.

First: G21U A61U
Second: U20C A61C
The self-cleavage of the first is higher: 0.202 for the first, 0.138 for the second.

Going from U20C A61G to A22C C46G, the self-cleavage rises from 0.0608 to 0.187.

First: A22C C46U
Second: G21C C66G
The self-cleavage of the first is lower: 0.141 for the first, 0.159 for the second.

Compared with A22G A59C, A22C A24U is higher in self-cleavage: 0.122 for the first, 0.485 for the second.

First: G21A A41U
Second: A22G C66U
The self-cleavage of the first is higher: 1.07 for the first, 0.453 for the second.

Going from A22G C66A to G21A G54A, the self-cleavage rises from 0.172 to 0.491.

First: G21A G54C
Second: G21C U52A
The self-cleavage of the first is lower: 0.293 for the first, 0.909 for the second.

Going from G21C U52C to A22C G42C, the self-cleavage falls from 0.971 to 0.291.

First: A22C G25U
Second: A22C G25C
The self-cleavage of the first is lower: 0.17 for the first, 0.182 for the second.

Compared with G21U U33C, U20G G68C is lower in self-cleavage: 0.192 for the first, 0.162 for the second.

Compared with U20C G42A, A22G U55A is higher in self-cleavage: 0.19 for the first, 0.318 for the second.

Going from G21A A49U to G21C A59G, the self-cleavage falls from 0.234 to 0.206.

First: G21C A59U
Second: G21U G69C
The self-cleavage of the first is lower: 0.204 for the first, 0.293 for the second.

First: G21U G69A
Second: G21U G69U
The self-cleavage of the first is higher: 0.374 for the first, 0.211 for the second.

Compared with A22G G32C, U20C A30U is lower in self-cleavage: 0.0859 for the first, 0.0821 for the second.

Going from G21U C46U to G21U C46A, the self-cleavage falls from 0.128 to 0.0942.

Compared with G21C G29U, G21U U53C is higher in self-cleavage: 0.316 for the first, 0.85 for the second.

Compared with G21U U53G, U20C G56A is lower in self-cleavage: 0.907 for the first, 0.255 for the second.

Compared with A22C A41C, A22G A24C is lower in self-cleavage: 1.22 for the first, 0.705 for the second.

Compared with G21C A35C, A22G C65U is lower in self-cleavage: 0.748 for the first, 0.395 for the second.

Going from G21U A30C to G21A G32C, the self-cleavage falls from 0.232 to 0.146.

First: U20G A26C
Second: U20G A26G
The self-cleavage of the first is lower: 0.483 for the first, 0.788 for the second.

First: U20C C65G
Second: G21U G32U
The self-cleavage of the first is higher: 0.472 for the first, 0.1 for the second.

Going from G21C A24G to G21C A24C, the self-cleavage rises from 0.555 to 0.556.

Going from G21C A44G to G21C A44C, the self-cleavage falls from 0.194 to 0.0985.

Going from U20C A23U to U20C A23C, the self-cleavage falls from 0.667 to 0.648.

Compared with G21A U52C, A22G A28G is lower in self-cleavage: 0.817 for the first, 0.735 for the second.

Going from A22G C37G to G21U A36G, the self-cleavage rises from 0.291 to 1.07.

Going from G21U A36C to G21U A36U, the self-cleavage rises from 0.463 to 0.661.

First: G21U U60G
Second: G21U U60A
The self-cleavage of the first is lower: 0.48 for the first, 0.851 for the second.

Going from U20G U53A to U20G U53C, the self-cleavage falls from 0.927 to 0.633.

Compared with A22G A26U, G21A C66G is lower in self-cleavage: 0.528 for the first, 0.156 for the second.

For U20G G34U, the self-cleavage was 1.5.
